# How the values were obtained:
# [1] = molecular target: memory CD4+ T cells from DP4+ donors, unstimulated (a small subset; their TCRs); assay: flow cytometry ex vivo; 71402 evts in the dimer- CD4+ gate
# [2] = molecular target: memory CD4+ T cells from DP4+ donors, unstimulated (a small subset; their TCRs); assay: flow cytometry ex vivo; 80783 evts in the dimer- CD4+ gate
# [3] = molecular target: memory CD4+ T cells from DP4+ donors, unstimulated (a small subset; their TCRs); assay: flow cytometry ex vivo; 122665 evts in the dimer- CD4+ gate
# [4] = molecular target: memory CD4+ T cells from DP4+ donors, unstimulated (a small subset; their TCRs); assay: flow cytometry ex vivo; 50227 evts in the dimer- CD4+ gate
# [5] = molecular target: memory CD4+ T cells from DP4+ donors, unstimulated (a small subset; their TCRs); assay: flow cytometry ex vivo; 160045 evts in the dimer- CD4+ gate
# [6] = molecular target: DQ6 (DQA1*01:02-DQB1*06:02)-restricted influenza virus HA-specific TCR (DM2); assay: flow cytometry, TCR-transduced primary T cells
# [7] = molecular target: memory CD4+ T cells from DP4+ donors, unstimulated (a small subset; their TCRs); assay: flow cytometry ex vivo; 159441 evts in the dimer- CD4+ gate
# [8] = molecular target: memory CD4+ T cells from DP4+ donors, unstimulated (a small subset; their TCRs); assay: flow cytometry ex vivo; 82428 evts in the dimer- CD4+ gate
# [9] = molecular target: memory CD4+ T cells from DP4+ donors, unstimulated (a small subset; their TCRs); assay: flow cytometry ex vivo; 49894 evts in the dimer- CD4+ gate
# [10] = molecular target: memory CD4+ T cells from DP4+ donors, unstimulated (a small subset; their TCRs); assay: flow cytometry ex vivo; 73637 evts in the dimer- CD4+ gate
# [11] = molecular target: memory CD4+ T cells from DP4+ donors, unstimulated (a small subset; their TCRs); assay: flow cytometry ex vivo; 122436 evts in the dimer- CD4+ gate
substance,measurement,setting,value
DP4^L112W/V141M dimer loaded with respiratory syncytial virus glycoprotein162-175 (RSV-GP162-175) (peptide-MHC),events in the dimer+ CD4+ gate,[1],25 evts
same,events in the dimer+ CD4+ gate,[2],4 evts
same,events in the dimer+ CD4+ gate,[3],10 evts
same,events in the dimer+ CD4+ gate,[4],1 evts
same,events in the dimer+ CD4+ gate,[5],37 evts
Control (DQ6^L114W/V143M+3reps dimer) (peptide-MHC),% dimer+ CD4+ cells,[6],0.1%
DP4^L112W/V141M dimer loaded with herpes simplex virus type-2-UL21283-302 (HSV-2-UL21283-302) (peptide-MHC),events in the dimer+ CD4+ gate,[7],1 evts
same,events in the dimer+ CD4+ gate,[8],1 evts
same,events in the dimer+ CD4+ gate,[9],1 evts
same,events in the dimer+ CD4+ gate,[10],8 evts
same,events in the dimer+ CD4+ gate,[11],6 evts
"DR1 dextramer (PE), Flu-HA306-318 (peptide-MHC)",percent multimer-positive CD4+ cells (number at the gate),DR1-restricted TCR HA1.7,30.4%

# — patent US20220291215A1
